Four molecules from patent US20240425603A1 (Janssen / Centocor, published 2024) can be followed below.

Assay [1] deals with T1, cynomolgus monkey VEGFR1, over-expressed on HEK293 cells (cynomolgus monkey).
T1 construct: whole, on cells; also called HEK/ cyno VEGFR1; cynoVEGFR1
As to the kind of experiment: flow cytometry, HEK cells over-expressing cyno VEGFR1; competitor biotinylated VEGF A (500 pM). On the technique in general: Flow cytometry measures light scatter and fluorescence of single cells or particles in a stream.

Assay [2] deals with T2, human VEGFR3, over-expressed on K562 cells (human, UniProt P35916 25-1363).
T2 construct: whole, on cells; also called huVEGFR3; hVEGFR3
As to the kind of experiment: flow cytometry, 10 nM antibody, K562 cells over-expressing human VEGFR3.

The target of assay [3] is T1, cynomolgus monkey VEGFR1, …. As to the kind of experiment: flow cytometry, 10 nM antibody, HEK cells over-expressing cyno VEGFR1. On the procedure: Parental CHO-K1 cells, CHO-K1 cells stably expressing human VEGFR1, Ba/F3 parental, and Ba/F3 cells stably expressing murine VEGFR1 were stained for 10 minutes at 4° C. with either no stain, CSFE, CTV, or CTV+CSFE, respectively. Cells were subsequently washed with media containing heat inactivated FBS, collected by centrifugation, combined, resuspended in stain buffer, and plated (95 μL/well; 200,000 of each cell type per well). Antibody samples were added ([…]) to a final concentration of 10 nM and incubated for 60 min at 4° C. protected from light. Cells were washed twice with 150 μL/well stain buffer. AlexaFluor647-conjugated anti-human IgG1 secondary antibody was added (100 μL/well) and incubated for 30 minutes at 4° C. protected from light. Cells were washed twice with 150 μL of stain buffer, ultimately resuspended in 30 μL of running buffer and read on an iQue flow cytometer. This single concentration assay was used as a quick confirmation of binding to human and mouse VEGFR1 on cells. A similar assay was performed to confirm binding of candidate antibodies to HEK293 cells stably over-expressing cyno VEGFR1 at a single concentration of 10 nM.

In assay [4] the target is T3, human VEGFR1, full length, over-expressed on cells (human, UniProt P17948 27-1338).
T3 construct: on CHO-K1 or HEK cells; also called hVEGFR1; CHOK1/ human VEGFR1
As to the kind of experiment: flow cytometry, CHOK1 cells over-expressing human VEGFR1; competitor biotinylated VEGF A (500 pM). On the procedure:
Ligand blocking on cells was determined as follows: Cell Trace Violet CSFE (ThermoFisher Scientific) stained cells were plated at 15,000 cells per well (30 μL/well; CHO parental or CHO cells engineered to over-express human VEGFR1) in FACS staining buffer. An equivalent volume of serially diluted test antibody was applied to the cells and incubated for one hour at 4° C. Cells were washed twice with 200 μL/well of stain buffer followed by the addition of 100 μL/well of biotinylated VEGF A ligand (500 pM). The cells were incubated at 4° C. for another hour followed by the addition of 50 µL/well of AF647-conjugated streptavidin (3 nM). The plate was incubated at 4° C. for 30 min protected from light, washed twice with 200 μL/well of stain buffer, collected by centrifugation, resuspended in running buffer containing Sytox Blue live/dead stain and then read on an Intellicyt iQue Plus flow cytometer. Data was fit to obtain IC₅₀ values. Percent ligand blocking was calculated for each concentration of each test antibody and IC50 values were determined (Table 25).

Assay [5] concerns the target T4, human VEGFR2, over-expressed on HEK293 cells (human, UniProt P35968 20-1356).
T4 construct: whole, on cells; also called huVEGFR2; hVEGFR2
As to the kind of experiment: FACS cell binding (MFI) on HEK cells over-expressing human VEGFR2; expanded clone supernatant per paragraph 492, concentration not given. The essentials:
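Flow cytometry was used to measure binding of culture supernatants to HEK cells over-expressing mouse VEGFR1 or human VEGFR2 and to K562 cells over-expressing human VEGFR3. The supernatants came from chicken-derived clones expressed as scFv-Fc (human IgG1) by transient transfection and expanded to 6-well plates (2 mL). Binding is reported as mean fluorescence intensity.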

The target of assay [6] is T5, Recombinant human VEGFR1-Fc (R&D Systems) (human, UniProt P17948 27-687, limits assumed).
T5 construct: bought; not shown: Fc part of the bought fusion, not described
As to the kind of experiment: MSD ECL competition on plate-bound human VEGFR1-Fc; competitor biotin human VEGFA165 (0.2 nM). The gist of the method: (§1)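 MSD 384 plates were coated with Protein A/G or anti-His mAb, blocked with Blocker A, and used to capture human or mouse VEGFR1-Fc or His-tagged cyno VEGFR1 at 0.5 ug/ml for 1 hour at room temperature. Antibody in half-log dilutions was pre-incubated for 30 minutes, after which biotinylated VEGFA (0.2 nM) or PlGF (2 nM) was added. Bound ligand was detected with Sulfo-tagged streptavidin on an MSD SECTOR S 600 imager, and IC50 and maximal percent inhibition were derived from the electro-chemiluminescence signal.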

Assay [7] addresses His tagged cyno VEGFR1 (cynomolgus monkey, UniProt A0A2K5VAF2 27-758). As to the kind of experiment: MSD ECL competition on plate-bound His-tagged cyno VEGFR1; competitor biotin human PlGF (2 nM). The essentials:
as §1

Assay [8] concerns the target T6, Recombinant mouse VEGFR1-Fc (R&D Systems) (mouse, UniProt P35969 27-759, limits assumed).
T6 construct: bought; not shown: Fc part of the bought fusion, not described
T6 sequence (looked up): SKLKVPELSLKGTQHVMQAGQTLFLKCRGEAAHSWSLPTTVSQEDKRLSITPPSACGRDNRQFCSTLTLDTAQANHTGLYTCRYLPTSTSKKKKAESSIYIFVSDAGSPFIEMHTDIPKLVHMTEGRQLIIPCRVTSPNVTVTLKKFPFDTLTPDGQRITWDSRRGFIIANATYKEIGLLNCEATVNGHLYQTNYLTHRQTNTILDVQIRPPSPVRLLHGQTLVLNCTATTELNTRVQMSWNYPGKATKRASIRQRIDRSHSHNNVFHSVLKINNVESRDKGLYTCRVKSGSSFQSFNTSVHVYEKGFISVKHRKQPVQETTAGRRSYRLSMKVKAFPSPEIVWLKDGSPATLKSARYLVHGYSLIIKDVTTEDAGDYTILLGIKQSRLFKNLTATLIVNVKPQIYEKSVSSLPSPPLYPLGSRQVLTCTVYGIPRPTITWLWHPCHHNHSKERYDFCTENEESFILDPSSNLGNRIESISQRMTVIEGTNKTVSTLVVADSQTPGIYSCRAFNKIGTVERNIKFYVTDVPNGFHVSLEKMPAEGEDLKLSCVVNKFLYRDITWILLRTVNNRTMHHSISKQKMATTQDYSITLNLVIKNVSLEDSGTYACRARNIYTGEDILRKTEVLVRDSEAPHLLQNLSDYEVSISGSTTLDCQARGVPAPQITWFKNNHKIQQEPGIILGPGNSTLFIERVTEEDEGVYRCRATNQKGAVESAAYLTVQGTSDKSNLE
As to the kind of experiment: MSD ECL competition on plate-bound mouse VEGFR1-Fc; competitor biotin mouse VEGFA164 (0.2 nM). The essentials:
as §1

T2 sequence (P35916 25-1363): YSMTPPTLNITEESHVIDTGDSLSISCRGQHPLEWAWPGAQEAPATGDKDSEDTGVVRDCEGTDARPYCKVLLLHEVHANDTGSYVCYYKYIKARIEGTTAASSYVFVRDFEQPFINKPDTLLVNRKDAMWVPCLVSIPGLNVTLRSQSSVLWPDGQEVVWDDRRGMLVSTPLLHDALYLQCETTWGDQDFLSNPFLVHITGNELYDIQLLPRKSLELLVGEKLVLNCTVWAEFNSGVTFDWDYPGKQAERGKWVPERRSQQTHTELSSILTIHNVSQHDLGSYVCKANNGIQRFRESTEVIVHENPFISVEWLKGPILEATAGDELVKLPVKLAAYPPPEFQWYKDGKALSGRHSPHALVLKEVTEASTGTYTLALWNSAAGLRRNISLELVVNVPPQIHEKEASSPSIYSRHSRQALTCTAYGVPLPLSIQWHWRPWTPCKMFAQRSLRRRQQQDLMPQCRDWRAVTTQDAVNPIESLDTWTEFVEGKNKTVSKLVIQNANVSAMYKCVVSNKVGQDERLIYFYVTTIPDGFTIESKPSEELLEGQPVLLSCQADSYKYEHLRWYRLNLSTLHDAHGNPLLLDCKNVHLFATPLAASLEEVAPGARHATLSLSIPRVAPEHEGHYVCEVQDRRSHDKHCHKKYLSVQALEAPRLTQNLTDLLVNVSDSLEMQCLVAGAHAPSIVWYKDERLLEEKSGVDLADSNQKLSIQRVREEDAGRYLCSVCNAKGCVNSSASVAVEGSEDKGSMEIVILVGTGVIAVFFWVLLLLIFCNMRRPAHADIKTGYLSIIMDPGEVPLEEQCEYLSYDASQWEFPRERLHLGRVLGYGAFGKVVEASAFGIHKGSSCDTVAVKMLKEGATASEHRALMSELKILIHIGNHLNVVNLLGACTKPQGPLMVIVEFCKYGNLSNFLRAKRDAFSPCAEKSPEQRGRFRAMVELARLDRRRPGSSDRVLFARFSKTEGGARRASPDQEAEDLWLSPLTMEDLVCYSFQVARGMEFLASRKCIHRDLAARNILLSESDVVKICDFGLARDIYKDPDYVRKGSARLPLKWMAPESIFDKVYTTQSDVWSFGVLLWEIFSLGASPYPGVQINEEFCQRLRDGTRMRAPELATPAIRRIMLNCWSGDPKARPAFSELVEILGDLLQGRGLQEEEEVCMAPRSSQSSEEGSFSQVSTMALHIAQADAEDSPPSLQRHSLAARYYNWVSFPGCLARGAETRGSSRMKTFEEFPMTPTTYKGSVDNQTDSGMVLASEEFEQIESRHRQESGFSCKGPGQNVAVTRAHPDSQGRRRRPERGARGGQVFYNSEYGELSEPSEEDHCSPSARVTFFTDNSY
T3 sequence (P17948 27-1338 limits assumed): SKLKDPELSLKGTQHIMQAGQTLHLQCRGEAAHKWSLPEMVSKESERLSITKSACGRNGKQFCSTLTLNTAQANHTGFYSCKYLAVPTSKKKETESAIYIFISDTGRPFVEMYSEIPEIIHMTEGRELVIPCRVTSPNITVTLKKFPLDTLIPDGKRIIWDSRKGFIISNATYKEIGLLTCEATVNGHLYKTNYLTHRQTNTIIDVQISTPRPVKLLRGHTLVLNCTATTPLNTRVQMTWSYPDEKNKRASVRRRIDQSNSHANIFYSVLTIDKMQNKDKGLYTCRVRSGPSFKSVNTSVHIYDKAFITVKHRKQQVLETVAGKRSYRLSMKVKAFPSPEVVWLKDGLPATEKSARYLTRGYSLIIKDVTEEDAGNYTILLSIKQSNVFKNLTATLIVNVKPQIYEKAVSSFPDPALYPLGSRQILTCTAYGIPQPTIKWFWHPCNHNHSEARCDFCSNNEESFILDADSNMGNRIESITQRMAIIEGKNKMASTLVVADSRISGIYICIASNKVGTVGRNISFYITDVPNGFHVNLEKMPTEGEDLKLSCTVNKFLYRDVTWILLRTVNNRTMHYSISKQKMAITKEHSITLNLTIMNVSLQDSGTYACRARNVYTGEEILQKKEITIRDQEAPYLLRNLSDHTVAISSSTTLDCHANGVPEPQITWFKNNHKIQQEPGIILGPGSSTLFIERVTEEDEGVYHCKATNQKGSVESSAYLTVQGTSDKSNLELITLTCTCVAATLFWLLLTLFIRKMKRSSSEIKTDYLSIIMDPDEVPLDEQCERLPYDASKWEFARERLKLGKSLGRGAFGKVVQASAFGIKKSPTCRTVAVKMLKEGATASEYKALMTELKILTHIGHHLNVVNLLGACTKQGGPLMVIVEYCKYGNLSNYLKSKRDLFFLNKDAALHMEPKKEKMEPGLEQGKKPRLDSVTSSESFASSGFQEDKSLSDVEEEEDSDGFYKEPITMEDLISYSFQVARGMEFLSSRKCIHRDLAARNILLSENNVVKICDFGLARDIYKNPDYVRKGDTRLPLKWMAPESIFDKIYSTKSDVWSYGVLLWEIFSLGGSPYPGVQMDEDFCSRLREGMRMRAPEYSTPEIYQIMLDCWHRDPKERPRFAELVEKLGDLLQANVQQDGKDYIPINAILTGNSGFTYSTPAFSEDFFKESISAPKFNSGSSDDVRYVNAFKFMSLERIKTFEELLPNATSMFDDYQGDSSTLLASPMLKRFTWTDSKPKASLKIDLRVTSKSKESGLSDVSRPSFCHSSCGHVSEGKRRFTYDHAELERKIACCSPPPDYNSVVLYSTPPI
T5 sequence (P17948 27-687 limits assumed): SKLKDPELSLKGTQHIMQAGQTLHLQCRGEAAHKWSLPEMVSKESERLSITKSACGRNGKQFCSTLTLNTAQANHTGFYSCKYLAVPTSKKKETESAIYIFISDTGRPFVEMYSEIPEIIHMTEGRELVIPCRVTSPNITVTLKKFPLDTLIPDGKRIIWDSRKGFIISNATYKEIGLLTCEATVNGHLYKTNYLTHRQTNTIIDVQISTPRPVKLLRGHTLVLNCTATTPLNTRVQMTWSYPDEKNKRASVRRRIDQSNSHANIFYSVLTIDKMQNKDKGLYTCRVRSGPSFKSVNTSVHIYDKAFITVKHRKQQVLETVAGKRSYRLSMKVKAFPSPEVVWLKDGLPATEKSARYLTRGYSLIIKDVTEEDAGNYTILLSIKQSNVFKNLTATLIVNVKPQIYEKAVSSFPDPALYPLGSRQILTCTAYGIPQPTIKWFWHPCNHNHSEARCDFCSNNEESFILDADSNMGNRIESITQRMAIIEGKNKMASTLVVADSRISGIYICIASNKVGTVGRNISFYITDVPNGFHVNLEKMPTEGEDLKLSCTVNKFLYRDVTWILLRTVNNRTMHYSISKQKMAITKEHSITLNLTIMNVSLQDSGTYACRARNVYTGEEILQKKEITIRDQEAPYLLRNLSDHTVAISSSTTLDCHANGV
T4 sequence (P35968 20-1356): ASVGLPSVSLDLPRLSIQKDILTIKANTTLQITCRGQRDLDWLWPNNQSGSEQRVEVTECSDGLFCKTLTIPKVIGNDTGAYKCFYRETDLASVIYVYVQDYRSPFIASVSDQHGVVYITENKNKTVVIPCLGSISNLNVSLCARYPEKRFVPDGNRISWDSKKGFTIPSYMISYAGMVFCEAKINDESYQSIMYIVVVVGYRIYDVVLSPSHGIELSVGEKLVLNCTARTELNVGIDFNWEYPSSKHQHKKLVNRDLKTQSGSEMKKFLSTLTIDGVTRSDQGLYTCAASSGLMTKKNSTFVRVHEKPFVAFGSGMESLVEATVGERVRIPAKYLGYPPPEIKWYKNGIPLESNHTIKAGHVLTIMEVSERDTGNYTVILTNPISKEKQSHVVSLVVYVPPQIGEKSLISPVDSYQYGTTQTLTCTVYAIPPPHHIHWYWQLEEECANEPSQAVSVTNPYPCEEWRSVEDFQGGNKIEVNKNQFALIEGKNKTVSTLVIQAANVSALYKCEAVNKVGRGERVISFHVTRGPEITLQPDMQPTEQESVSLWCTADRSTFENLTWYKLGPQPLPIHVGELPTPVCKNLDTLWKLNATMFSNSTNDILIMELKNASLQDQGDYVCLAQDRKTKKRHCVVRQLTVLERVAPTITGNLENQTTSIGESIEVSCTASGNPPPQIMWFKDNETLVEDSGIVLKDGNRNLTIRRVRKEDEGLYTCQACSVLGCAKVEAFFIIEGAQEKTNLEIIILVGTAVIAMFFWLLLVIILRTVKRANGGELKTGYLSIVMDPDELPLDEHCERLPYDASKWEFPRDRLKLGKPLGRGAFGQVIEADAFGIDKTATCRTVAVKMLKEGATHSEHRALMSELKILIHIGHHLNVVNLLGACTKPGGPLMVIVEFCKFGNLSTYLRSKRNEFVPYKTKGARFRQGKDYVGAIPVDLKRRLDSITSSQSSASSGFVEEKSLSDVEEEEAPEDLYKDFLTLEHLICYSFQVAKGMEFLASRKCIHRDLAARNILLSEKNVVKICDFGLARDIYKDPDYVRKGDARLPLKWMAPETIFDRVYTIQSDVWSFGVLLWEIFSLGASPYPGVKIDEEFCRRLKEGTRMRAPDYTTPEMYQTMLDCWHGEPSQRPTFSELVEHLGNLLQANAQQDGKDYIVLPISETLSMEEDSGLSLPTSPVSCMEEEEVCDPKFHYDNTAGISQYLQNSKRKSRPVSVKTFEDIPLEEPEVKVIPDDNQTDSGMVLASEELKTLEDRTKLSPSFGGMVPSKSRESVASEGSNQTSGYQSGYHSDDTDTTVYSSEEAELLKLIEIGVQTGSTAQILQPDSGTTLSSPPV

B1: VGFB71 (antibody, human IgG1, lambda, L234A L235A, V domains shown)
VH: EVQLLESGGGLVQPGGSLRLSCEASGFIFRDYNMNWVRQAPGKGLEWVSIITNDGSSTAYSDSVKGRFTISRDNSKNSLYLQMNSLRAEDTAIYYCVKVYYGMDDWGQGTTVTVSS
VL: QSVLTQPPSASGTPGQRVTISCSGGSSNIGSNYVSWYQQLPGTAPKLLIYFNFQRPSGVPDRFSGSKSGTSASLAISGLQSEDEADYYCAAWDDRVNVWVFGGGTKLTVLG
notes: human IgG1 (L234A/L235A/D265S)
Take B1: the IC50 (in general, the concentration needed to halve the response being measured) worked out at 0.0957 nM in assay [1] and 0.0795 nM in assay [4]. The “Geomean over-expressing/Geomean parental (Fold Signal/Background)” value in assay [2] worked out at 0.98 fold; in assay [3], 3.8 fold.

B2: VGFB82 (antibody, human IgG1, lambda, L234A L235A, V domains shown)
VH: EVQLLESGGGLVQPGGSLRLSCEASGFDFSTYAMNWVRQAPGKGLEWVATINSEGTITSHAPAVKGRFTISRDNSKNTAYVQMNSLRAEDSAVYYCSSTTGTTHGMDVWGRGTTVTVSS
VL: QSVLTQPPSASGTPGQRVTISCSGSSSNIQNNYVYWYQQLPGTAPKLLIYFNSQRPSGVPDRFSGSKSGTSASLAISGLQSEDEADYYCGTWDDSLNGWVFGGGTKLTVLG
notes: as for B1
In the case of B2, the IC50 was determined as 0.231 nM in assay [1]; 0.152 nM in assay [6]; 0.091 nM in assay [7]; 0.04 nM in assay [8]; 0.198 nM in assay [4]. In addition, the “Geomean over-expressing/Geomean parental (Fold Signal/Background)” value in assay [2] was 1.01 fold; in assay [3] it was 3.3 fold. Moreover, in assay [5], the binding result is listed as “no binding”. Moreover, the entries for the “Max % Inh.” value in assay [6], in assay [7] and in assay [8] were 99.9%, 100% and 99.8%, respectively.

B3: VGFB54 (antibody, human IgG1, lambda, L234A L235A, V domains shown)
VH: EVQLLESGGGSVQPGGSLRLSCTASGFNFEDYGMNWVRQAPGKGLDWVSSINRNGDISTYHVDSVKGRFTISRDNSKNTLYLQMNSLRAEDTAIYYCTKNHDYHGMDVWGQGTTVTVSS
VL: not shown
notes: human IgG1 (L234A/L235A/D265S), lambda, 2H:2L; from OmniChicken
In the case of B3, the IC50 in assay [1] worked out at 0.0876 nM; in assay [6], 0.141 nM; in assay [7] it was 0.078 nM; in assay [8], 0.026 nM; in assay [4] it was 0.0727 nM. Further, the “Geomean over-expressing/Geomean parental (Fold Signal/Background)” value stood at 0.97 fold in assay [2] and 4.4 fold in assay [3]. Moreover, the binding result in assay [5] was “no binding”. The “Max % Inh.” value is 99.9% in assay [6], 100% in assay [7] and 100% in assay [8].

B4: VGFB78 (antibody, human IgG1, lambda, L234A L235A, V domains shown)
VH: EVQLLESGGGLVQPGGSLRLSCAASSFTFYNYDMTWVRQAPGKGLEWVAGIGTSGTDMYYADSVKGRFTISRDNSKNTLYLQMNSLRAEDTAIYYCAKDYYYYGMDVWGLGTTVTVSS
VL: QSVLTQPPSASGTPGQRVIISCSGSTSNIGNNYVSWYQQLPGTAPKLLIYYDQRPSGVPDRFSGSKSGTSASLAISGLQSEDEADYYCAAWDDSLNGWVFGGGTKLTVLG
notes: as for B1
As for B4, the IC50 in assay [1] was found to be 0.815 nM; in assay [6] it was 0.252 nM; in assay [7], 0.177 nM; in assay [8] it was 0.183 nM; in assay [4], 0.683 nM. The “Geomean over-expressing/Geomean parental (Fold Signal/Background)” value came to 0.99 fold in assay [2] and 4.46 fold in assay [3]. Further, the binding result in assay [5] is given as “no binding”. Further, the “Max % Inh.” value in assay [6] was 99.9%; in assay [7], 100%; in assay [8], 101%.
